According to the supplement of paper PMC9170038:

System: K4 kissing-loop RNA reporter
Assay: apparent KD of K4 kissing-loop reporter; higher = weaker reporter binding
Details: Eterna round: R107
Description: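 RNA-MaP round R107: designed RNA switches with theophylline, tryptophan, arginine or FMN aptamers are transcribed on-chip within common flanks. They are titrated with a labelled K4 kissing-loop RNA reporter in RNA-MaP buffer (100 mM Tris pH 7.5, 80 mM KCl, 4 mM MgCl2), without ligand or with the indicated ligand. Median apparent KD per design.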

[1] = input ligand: theophylline 20 uM
[2] = input ligand: tryptophan 2.4 mM
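Note: bound reporter read as fluorescence of individual clusters on recovered sequencing chips by microscopy, with normalized cluster intensities fitted with a binding model.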

Sequence | apparent KD of K4 kissing-loop reporter (input ligand: FMN 200 uM) [nM] | apparent KD of K4 kissing-loop reporter (input ligand: arginine 13.2 mM) [nM] | apparent KD of K4 kissing-loop reporter (input ligand: none) [nM] | apparent KD of K4 kissing-loop reporter [1] [nM] | apparent KD of K4 kissing-loop reporter [2] [nM]
CGCCAGUGAUGUUGGCGCAGGUUGCGGGAAGGAGCGCGCGUAAGCGCAGGUAGGUCGCCUGCAGGCCAGUGAUGUUGGCAAUCUG [Same State Arginine A GF 30] | 130 | 110 | 143 | 111 | 116
CGCCAUAACACGGCCGCCACUCAUCAAGCUCAGUGAUGUUGAGCAGCAGCUGCAAUCGCGAUUACGAGGACCGGGUGCUGUCUGU [theeternabot_sameState_KL_Trp_B_50] | 286 | 329 | 314 | 357 | 231
CGCGCCCAGCCGGAUACCAGUGACCCGCUGGGAACCGCGGGCCCAGAGUGAUGUUCGGGACACCCUUGGCAGCCGCCUGGGCGGU [#2 Same State - Theophylline B Attempt #10 (HarryS)] | 2380 | 576 | 1270 | 576 | 1570
CGCGGCCGGCCGGAUACCAGUGACCCGCUGGCAACCGCGGGCCCAGAGUGAUGUUCGGGACACCCUUGGCAGCCGCCUGGGCGUG [#2 Same State - Theophylline B Attempt #4 (HarryS)] | 521 | 309 | 483 | 694 | 396
CGCUGGGCGAGUGAUGUUCGCUCACGUGAUACCAGUGCCAUCCAACACCCUUGGCAGCACGCGGGCAGUGAUGUUGUCCUUGUAU [Exclusion Theophylline A GF6] | 130 | 117 | 127 | 109 | 119
CGGACUGCAGGAAGGAGCGGCGGACGGAGUGAUGUUCCGGGUAGUGAUGUUACCAAACACCGCCAGGUAGGUCGCCUGUUGCUCC [Same State Arginine B GF8] | 161 | 134 | 170 | 146 | 147
CGGAGUGAUGUUCCGUUAAUUCCUUAUUUACGAGGACCGGUACGGCCGCCACUCGAUUUUGCUUUUAUUUAAUGUUUGGAAAUUU [JR_SSTryptoA_Sub007] | 256 | 274 | 269 | 317 | 122
CGGAUGUAGUGAUGUUAUAUUAGAUGUAGACGAGGACCGGUACGGCCGCCACUCGUGAUGGCUGCUAGCACGUUUCGAGGUUUGC [ExTryptoA.Cp] | 515 | 624 | 604 | 438 | 489
CGGUUUGGUUGAGAGGUUGGGCCGAAUGAUACCAGUAUAUAAGAAUACCCUUGGCAGCAUAAGAAAGAUAUAGUGAUGUUGUAUA [SSTheophA.J] | 475 | 537 | 495 | 513 | 507
CGUACAUCUUUUCGCGGAGUGAUGUUCUCGCGAGGACCGGUACGGCCGCCACUCGAAUUGUUAUCUGGCGAAAAUUGUCUAUAAA [theeternabot_exclusion_KL_Trp_A_33] | 393 | 273 | 352 | 318 | 410
CGUGAAGCCCAGAGGUGAUGUAUAGUAUCGCGAGGACCGGUACGGCCGCCACUCGUGAAGAGAAAGGAGUGAUGUUCCGUAAUGG | 480 | 380 | 595 | 406 | 165
CGUGAGUGAUGUUCACGAUGCUUCAAUCUAGAGGAUAUUCACGAUCGAAGAAGGCUGGACAAGUGCUGUCUCAUGACAGAUAAGG [FMN A SS t4] | 161 | 253 | 287 | 298 | 237
CGUGGUGCCAAAGGAUAUCAUGCUAACGCGGUUGAGUGAUGUUCGACCCGAGAUAAGAGUGGGCAUUGAGAAGGUUGCGCAGAAG [theeternabot_sameState_KL_FMN_B_10] | 149 | 125 | 139 | 124 | 145
CGUUGGAGUGAUGUUCCAGGUUGUACGGAUACCAGCCAAGCCAGCGGCCCUUGGCAGCCGACUAUUGCAGUGAUGUUGUGAUGCC [Same State Theophylline A GF 3] | 715 | 539 | 751 | 772 | 524
CUACGACAGGAAGGAUAUCGUGUGGAGAGCAGUUAUUUAAAGGUAGUGAUGUUACAGGAGACUGUUCGAGAAGGUCCUCAGUUAC [theeternabot_exclusion_KL_FMN_B_32] | 104 | 98.6 | 119 | 93.3 | 103
CUACGUCGAGCGGCCGCCACUAUGGGUUGCCAAGUAGUGAUGUUACUGAGCUUUUAAUGAUCCUUUAGGACCGGGCUUUGGGAGG [theeternabot_sameState_KL_Trp_B_46] | 281 | 203 | 227 | 269 | 174
CUACUGAGUGAUGUUCAACAUAAUGUCGAUACCAGCACAUUUGCCUGCCCUUGGCAGCGACGCACCAGGACCUGAGAGUACUGGU [theeternabot_sameState_KL_Theo_A_13] | 567 | 637 | 623 | 612 | 410
CUAUCCCGCCGUGUACGUAAUAUACGGUGCCGAGGACCGGUACGGCCGCCACUCGAUAAGCUUUGUCGGAGUGAUGUUCCGACCG [Maais] | 200 | 156 | 229 | 280 | 202
CUCAAGUGAGGAUUUCGACAUCAAGAUGUGAAGGAUAUGUUACCAAACAGAAGGUCACGAUGUCAUCUAUGAGUGAUGUUCAGGA [theeternabot_sameState_KL_FMN_A_31] | 208 | 130 | 208 | 186 | 181
CUCUGCUUCCCAGGGCUAGUGAUGUUAGCCCGAGGACCGGUACGGCCGCCACUCGAGUUAAGCAUCGACCGUGAAUGUUCGAAGC [theeternabot_exclusion_KL_Trp_A_48] | 138 | 143 | 139 | 179 | 140
CUGACGCUGAUACGGUGGCCGGUGGUCGUGCGAGGACCGGUACGGCCGCCACUCGCAUGAGUGAUGUUCAUGUGUCGUCGUCGUC [#05 K4 Tryptophan A Exclusion] | 116 | 95.9 | 114 | 90.2 | 123

Sequence | apparent KD of K4 kissing-loop reporter (input ligand: FMN 200 uM) [nM] | apparent KD of K4 kissing-loop reporter (input ligand: arginine 13.2 mM) [nM] | apparent KD of K4 kissing-loop reporter (input ligand: none) [nM] | apparent KD of K4 kissing-loop reporter [1] [nM] | apparent KD of K4 kissing-loop reporter [2] [nM]
CUGUUGUAGACUGAUACCAGUCUCACAGCAGAUGUGUGGGACUUAGUGAUGUUAAGUACCGACCCUUGGCAGCAGUCUACGACCU [Theo B SS t6] | 428 | 374 | 377 | 452 | 394
CUUAUUAUGUCGGCCGCCACUCAAUGAUAAUCCACUAAAUUGCGAUUCAGUGAUGUUGAAGUGCUGAGGACCGGGACUAUUAACA [theeternabot_sameState_KL_Trp_B_22] | 541 | 206 | 345 | 214 | 316
CUUCGAUUAACAGAUACCAGUCAUACUGGAGCCUCACUCGAGUGAGUGAUGUUCACUUGAGACCCUUGGCAGCUGUUAGUCGAAG [Theo B Ex t1a] | 92.3 | 86.2 | 89.6 | 106 | 93.4
CUUCGUAAAGGCCCAGUGAUGUUGGGCACUCGAGGACCGGUACGGCCGCCACUCGCUCCCUAAGUCGCGUGCGUGGGCCACCGCC [Anala] | 115 | 97 | 99.1 | 94.5 | 104
CUUGAAAUGACUGAUACCAGUGAAAAUAUAUGUAGUGAUGUUAUAUACUAAUUUAAUAAGCGCCCUUGGCAGCAGUAUGAAUUAU [AstrosExc-theB#17] | 861 | 516 | 868 | 764 | 702
CUUGAAAUGACUGAUACCAGUGAAAAUCUAUGUAGUGAUGUUAUAUACUAAUUUAAUAAGCGCCCUUGGCAGCAGUAUGAAUUAU [AstrosExc-theB#18] | 657 | 260 | 532 | 561 | 445
CUUGCCCUUUCGGCCGCCACUCCGAGUGAUGUUGGGAUGUUCGGUGCAGCCAUUUAGAUGUCAGUGAGGACCGGGAAAUUAUGCG [theeternabot_exclusion_KL_Trp_B_9] | 220 | 128 | 251 | 150 | 196
CUUGGUCCACGAAGGAGCGCCGUGCAGUGAUGUUGCAGUCAGAUCGAGUGAUGUUUCGGGCGGCAGGUAGGUCGCGUGGCCCUUU [Excusion Arginine B GF 25] | 655 | 362 | 768 | 640 | 464
CUUGGUCUACGAAGGAGCGCCGUGCAGUGAUGUUGCAGUCAGAUCGAGUGAUGUUUCGGGCGGCAGGUAGGUCGCGUGGCCCUCU [Excusion Arginine B GF 27] | 574 | 437 | 725 | 692 | 591
CUUGUACAAGUGAUGUUUGUUAUAUCCGAAGGAGCGUCGUAAUAGACAGGUAGGUCGCGGAGUUAGCUGGUUUUUUUAACAGCUA [JR_Nu_SSArginiA_Sub030] | 621 | 421 | 679 | 472 | 584
CUUUGGAGUGAUGUUCCAGGUUGUACGGAUACCAGCCAAGCCAGAGGCCCUUGGCAGCCGAGUAUUGCAGUGAUGUUGCGAUGGG [Same State Theophylline A GF 2] | 304 | 239 | 282 | 335 | 261
GAAAGAAAGUAUGAUACCAGACACCCGAGUGAUGUUCGGAACAGUGUGUUGUUCUUUUAAGUCCCUUGGCAGCAUAAAAGAAAAG [whbob_SS_Theo_B_sa86] | 135 | 143 | 151 | 171 | 110
GAACGGCUGGCGGCCGCCACUGGUAUACGAGUGAUGUUCGGAUACACAUAGAAUAAGGUGAUUGACAGGACCGGGUCAGAGCCGG [#15 K4 Tryptophan B Same State] | 251 | 197 | 234 | 246 | 180
GAAGGUCAAAGACCUUCGUGCACACCUGAUACCAGUCGCGAAAGCGACCCUUGGCAGCAGGGUAGUGAUGUUGCCAGUGCACAAA [#14 K4 Theophylline A Same State] | 865 | 735 | 797 | 595 | 732
GAAUUUGCCGAUCAAAGUGAUGUUUUGGAUACCAGCCAUCAAGCUGGCCCUUGGCAGCCAACGUCGGCUGGCGACCGUGCGGACU [theeternabot_exclusion_KL_Theo_A_50] | 383 | 253 | 347 | 310 | 285
GACACUCGGUGAUAAUAACCGUUACGCGAUACCAGCGUAACAGUACGCCCUUGGCAGCGCAGUGAUGUUGCGUGCCGAGUGUGAA [Theo A Ex Mod of Esbiceve] | 180 | 170 | 172 | 170 | 163
GACAUACCUAUGGAGGGCCGAUCGAACAAACGAGGACCGGUACGGCCGCCACUCGUGGGCAGUGAUGUUGACCCUGGGAGGUAAG | 373 | 410 | 544 | 236 | 598
GAGAAUCUCACGGCCGCCACUCACCUGUUAAUUGACAUCGACGGCCUCGACCAGUGAUGUUGUGUGAGGACCGGGUGUCUCGUGU [theeternabot_exclusion_KL_Trp_B_32] | 647 | 519 | 702 | 562 | 423
GAGGUUUACGUAGGAUAUCGAUAAUGAGUAAAUGGAGUGAUGUUCCGAAAUUGAAUAAGAGAUGAGCGAGAAGGGCGGAUUAAGC [FMN B Same State; Euporia Solution] | 39.1 | 41.4 | 37.8 | 66.5 | 43.4
GAGGUUUACGUAGGAUAUCGGUAAUGAGUAGAUGGAGUGAUGUUCCGAAAUUGAAUAGGAGAUGGGCGAGAAGGGCGGAUUAAGC [whbob_SS_FMNB__2th204] | 82.1 | 91.6 | 77.4 | 110 | 58.1
GAUAAUAGAAUAGAUACCAGUCAAGACCUAGUGAUGUUAGGGAGAUAAGUAGAAUGAAUUGGCCCUUGGCAGCUAUAAUAGUAGG [Default title] | 92.4 | 106 | 80.5 | 129 | 73.4
